Assay results: PMC11937253

Experiments:
Assay in all cases: SPR; BiaCore T200; […]; 1:1 binding model
[1] = target: MPXV E8L ectodomain, His-tagged recombinant protein (mpox virus (MPXV), isolate MPXV_USA_2022_MA001)
[2] = target: MPXV M1R ectodomain, His-tagged recombinant protein (mpox virus (MPXV), isolate MPXV_USA_2022_MA001)
[3] = target: MPXV H3L ectodomain, His-tagged recombinant protein (mpox virus (MPXV), isolate MPXV_USA_2022_MA001)
[4] = target: MPXV B6R ectodomain, His-tagged recombinant protein (mpox virus (MPXV), isolate MPXV_USA_2022_MA001)

B1: Nanobody E8L-01 (VHH)
VHH: QVQLVESGGGLVQAGGSLRLSCAASGRIFINRVMGWYRQAPGKEREFVAGIAQGGSTNYADSVKGRFTISRDNAKNTVYLQMNSLKPEDTAVYYCAAKFWNWHHDHRGYDYWGQGTQVTVSS
Kd [1]: 0.66 nM | koff [1]: 0.0029 s⁻¹ | kon [1]: 4.35e+06 M⁻¹ s⁻¹

B2: Nanobody E8L-04 (VHH)
VHH: QVQLVESGGGLVQAGGSLRLSCAASGRIFGRRAMGWYRQAPGKEREFVAAISNGFNTNYADSVKGRFTISRDNAKNTVYLQMNSLKPEDTAVYYCAATVSRRGEQTFFYDYWGQGTQVTVSS
Kd [1]: 1.77 nM | koff [1]: 0.0015 s⁻¹ | kon [1]: 876000 M⁻¹ s⁻¹

B3: Nanobody M1R-02 (VHH)
VHH: QVQLVESGGGLVQAGGSLRLSCAASGFIFDHWEMGWYRQAPGKEREFVASISAGLSTNYADSVKGRFTISRDNAKNTVYLQMNSLKPEDTAVYYCAARHFTAVFWKNSYDYWGQGTQVTVSS
Kd [2]: 23.5 nM | koff [2]: 0.0016 s⁻¹ | kon [2]: 68300 M⁻¹ s⁻¹

B4: Nanobody M1R-03 (VHH)
VHH: QVQLVESGGGLVQAGGSLRLSCAASGSIFETGAMGWYRQAPGKEREFVAAITGWDTNYADSVKGRFTISRDNAKNTVYLQMNSLKPEDTAVYYCAASHWISFYWEHYHPYDYWGQGTQVTVSS
Kd [2]: 24.9 nM | koff [2]: 0.0401 s⁻¹ | kon [2]: 1.61e+06 M⁻¹ s⁻¹

B5: Nanobody M1R-05 (VHH)
VHH: QVQLVESGGGLVQAGGSLRLSCAASGFIFYAWHMGWYRQAPGKERELVASIAYGGDTNYADSVKGRFTISRDNAKNTVYLQMNSLKPEDTAVYYCAAVHFTHHKWDQEYDYWGQGTQVTVSS
Kd [2]: 85.9 nM | koff [2]: 0.0037 s⁻¹ | kon [2]: 42800 M⁻¹ s⁻¹

B6: Nanobody E8L-05 (VHH)
VHH: QVQLVESGGGLVQAGGSLRLSCAASGRIFDTVEMGWYRQAPGKEREFVASISGGDSTYYADSVKGRFTISRDNAKNTVYLQMNSLKPEDTAVYYCAARSARNRWSIIFYDYWGQGTQVTVSS
Kd [1]: 2.39 nM | koff [1]: 0.002 s⁻¹ | kon [1]: 838000 M⁻¹ s⁻¹

B7: Nanobody E8L-06 (VHH)
VHH: QVQLVESGGGLVQAGGSLRLSCAASGFIFTSTRMGWYRQAPGKEREFVAGISIGGNTNYADSVKGRFTISRDNAKNTVYLQMNSLKPEDTAVYYCAARYYYFHNHNFAYDYWGQGTQVTVSS
Kd [1]: 11.6 nM | koff [1]: 0.0105 s⁻¹ | kon [1]: 910000 M⁻¹ s⁻¹

B8: Nanobody E8L-07 (VHH)
VHH: QVQLVESGGGLVQAGGSLRLSCAASGSIFKRYKMGWYRQAPGKEREFVACINKGGDTNYADSVKGRFTISRDNAKNTVYLQMNSLKPEDTAVYYCAVKRHAKAYGEFFYDYWGQGTQVTVSS
Kd [1]: 3.17 nM | koff [1]: 0.0018 s⁻¹ | kon [1]: 539000 M⁻¹ s⁻¹

B9: Nanobody E8L-08 (VHH)
VHH: QVQLVESGGGLVQAGGSLRLSCAASGFIFTNWGMGWYRQAPGKERELVAAITSGSSTNYADSVKGRFTISRDNAKNTVYLQMNSLKPEDTAVYYCAAIRGFSLIYQFFAQYDYWGQGTQVTVSS
Kd [1]: 3.11 nM | koff [1]: 0.002 s⁻¹ | kon [1]: 646000 M⁻¹ s⁻¹

B10: Nanobody H3L-01 (VHH)
VHH: QVQLVESGGGLVQAGGSLRLSCAASGRIFWWVPMGWYRQAPGKEREFVAGISKGDSTYYADSVKGRFTISRNNAKNTVYLQMNSLKPEDTAVYYCAANPRNNRFRAGVYDYWGQGTQVTVSS
Kd [3]: 11.2 nM | koff [3]: 0.0209 s⁻¹ | kon [3]: 1.87e+06 M⁻¹ s⁻¹

B11: Nanobody H3L-02 (VHH)
VHH: QVQLVESGGGLVQAGGSLRLSCAASGRIFLHRIMGWYRQAPGKERELVASISRGDNTYYADSVKGRFTISRDNAKNTVYLQMNSLKPEDTAVYYCAAGTGRHKDDHKDYDYWGQGTQVTVSS
Kd [3]: 94.8 nM | koff [3]: 0.0725 s⁻¹ | kon [3]: 765000 M⁻¹ s⁻¹

B12: Nanobody H3L-03 (VHH)
VHH: QVQLVESGGGLVQAGGSLRLSCAASGRIFFFAKMGWYRQAPGKEREFVASIVYGDITYYADSVKGRFTISRDNAKNTVYLQMNSLKPEDTAVYYCAAKPHWPSRRPRRYDYWGQGTQVTVSS
Kd [3]: 35.2 nM | koff [3]: 0.0092 s⁻¹ | kon [3]: 261000 M⁻¹ s⁻¹

B13: Nanobody E8L-02 (VHH)
VHH: QVQLVESGGGLVQAGGSLRLSCAASGRIFTDSYMGWYRQAPGKEREFVACITTGSSTYYADSVKGRFTISRDNAKNTVYLQMNSLKPEDTAVYYCAARFRYTVQHWFHTKFDYWGQGTQVTVSS
Kd [1]: 1.69 nM | koff [1]: 0.0003 s⁻¹ | kon [1]: 184000 M⁻¹ s⁻¹

B14: Nanobody B6R-02 (VHH)
VHH: QVQLVESGGGLVQAGGSLRLSCAASGRIFRRNVMGWYRQAPGKEREFVAAITKGGYTNYADSVKGRFTISRDNAKNTVYLQMNSLKPEDTAVYYCAARYFHRKRHKWRHDYWGQGTQVTVSS
Kd [4]: 14000 nM | koff [4]: 0.0029 s⁻¹ | kon [4]: 209 M⁻¹ s⁻¹

B15: Nanobody B6R-03 (VHH)
VHH: QVQLVESGGGLVQAGGSLRLSCAASGRILHRKGMGWYRQAPGKEREFVAAINKGGSTNYADSVKGRFTISRDNAKNTVYLQMNSLKPEDTAVYYCAVGKKRRTWINRHYDYWGQGTQVTVSS
Kd [4]: 3180 nM | koff [4]: 0.349 s⁻¹ | kon [4]: 110000 M⁻¹ s⁻¹

B16: Nanobody E8L-03 (VHH)
VHH: QVQLVESGGGLVQAGGSLRLSCAASGFIFTTRGMGWYRQAPGKEREFVACIFPGSSTNYADSVKGRFTISRDNAKNTVYLQMNSLKPEDTAVYYCAAEGPYRGFNFKKNLYDYWGQGTQVTVSS
Kd [1]: 5.81 nM | koff [1]: 0.0034 s⁻¹ | kon [1]: 662000 M⁻¹ s⁻¹

B17: Nanobody B6R-04 (VHH)
VHH: QVQLVESGGGLVQAGGSLRLSCAASGRIFASDRMGWYRQAPGKEREFVAAISYGSRTNYADSVKGRFTISRDNAKNTVYLQMNSLKPEDTAVYYCAVWAFHRSWKERSHWHDYWGQGTQVTVSS
Kd [4]: 1030 nM | koff [4]: 0.0412 s⁻¹ | kon [4]: 39900 M⁻¹ s⁻¹

B18: Nanobody B6R-05 (VHH)
VHH: QVQLVESGGGLVQAGGSLRLSCAASGRIFHPGAMGWYRQAPGKEREFVAGISSGGNTYYADSVKGRFTISRDNAKNTVYLQMNSLKPEDTAVYYCAAPFRWVKATGRFLDYWGQGTQVTVSS
Kd [4]: 95400 nM | koff [4]: 0.0008 s⁻¹ | kon [4]: 8.9 M⁻¹ s⁻¹

B19: Nanobody B6R-06 (VHH)
VHH: QVQLVESGGGLVQAGGSLRLSCAASGRIFRKRNMGWYRQAPGKEREFVASISRGSNTYYADSVKGRFTISRDNAKNTVYLQMNSLKPEDTAVYYCAVWRHRTFVRWKHFDYWGQGTQVTVSS
Kd [4]: 12.1 nM | koff [4]: 0.0056 s⁻¹ | kon [4]: 462000 M⁻¹ s⁻¹
